Measurements as given in publication PMC9486129, “An evolutionary divergent thermodynamic brake in ZAP-70 fine-tunes the kinetic proofreading in T cells” (The Journal of Biological Chemistry, 2022).

What was measured:
ZAP-70 tSH2 WT (1–256) [1] = assay: other fluorescence titration; steady-state intrinsic tryptophan fluorescence, 25 °C; 0.5 μM tSH2 domain titrated with ITAM peptide; excitation 295 nm, emission 300-400 nm; Hill equation fit
ZAP-70 tSH2 WT (1–256) [2] = assay: stopped-flow fluorescence; pre-steady-state tryptophan fluorescence, 10 °C; 100 nM tSH2 domain mixed with 30 μM ITAM peptide in 20 mM Tris pH 8.0, 150 mM NaCl, 5% glycerol, 5 mM β-mercaptoethanol; 1 s (fast) and 200 s (slow) transients; observed rates from one-site association fit
[3] = target: ZAP-70 tandem SH2 domain R192A (1-256); assay: ITC; Malvern PEAQ-ITC, 20 °C; C-SH2 mutant tSH2 (R192A, printed R190A in the methods) in 20 mM Hepes pH 8.2, 150 mM NaCl, 5 mM β-mercaptoethanol; titrated with 300 μM peptide; one-site binding model; constant printed under the column Kd2
ZAP-70 tSH2 R39A [4] = assay: other fluorescence titration; steady-state intrinsic tryptophan fluorescence, 25 °C; 0.5 μM tSH2 domain titrated with ITAM peptide; excitation 295 nm, emission 300-400 nm; Hill equation fit
ZAP-70 tSH2 F117A = assay: stopped-flow fluorescence; pre-steady-state tryptophan fluorescence, 10 °C; 100 nM tSH2 domain mixed with 30 μM ITAM peptide in 20 mM Tris pH 8.0, 150 mM NaCl, 5% glycerol, 5 mM β-mercaptoethanol; 1 s (fast) and 200 s (slow) transients; observed rates from one-site association fit
ZAP-70 tSH2 R192A = assay: as above
ZAP-70 tSH2 R39A [5] = assay: as above
ZAP-70 tSH2 R43P = assay: as above

Substance | Kd1 (ZAP-70 tSH2 WT (1–256) [1]) | kobs fast (ZAP-70 tSH2 WT (1–256) [2]) | kobs slow (ZAP-70 tSH2 WT (1–256) [2]) | other results
doubly phosphorylated ITAM-ζ3 peptide (ITAM-Y2P-ζ3) (from UniProt P20963 131-159) | 6.8 nM | 21.4 s⁻¹ | 0.012 s⁻¹ | 
ITAM-Y2P-ζ1 E13A (peptide) |  | 24.4 s⁻¹ | 0.022 s⁻¹ | 
single phosphotyrosine ITAM-ζ1 peptide (ITAM-YP-ζ1) (from UniProt P20963 61-89) | 3.7 nM | 28.6 s⁻¹ |  | 
doubly-phosphorylated ITAM-ζ1 peptide with E13A |  |  |  | Kd [3]: 9.8 µM
doubly phosphorylated ITAM-ζ1 peptide (ITAM-Y2P-ζ1) (from UniProt P20963 61-89) |  | 23.9 s⁻¹ | 0.262 s⁻¹ | Kd1 (ZAP-70 tSH2 R39A [4]): 8 nM; kobs fast (ZAP-70 tSH2 F117A): 21.8 s⁻¹; kobs slow (ZAP-70 tSH2 F117A): 0.0517 s⁻¹; kobs slow (ZAP-70 tSH2 R192A): 0.006 s⁻¹; kobs fast (ZAP-70 tSH2 R39A [5]): 24.8 s⁻¹; kobs fast (ZAP-70 tSH2 R43P): 28 s⁻¹; kobs slow (ZAP-70 tSH2 R43P): 2.25 s⁻¹
